assay: soluble on expression in E. coli; label from the status in PepcDB or PDB records

Sequence | soluble on expression in E. coli
MSRQACKKSFSCGSQGFSGHSAVVSGSSRSSCVARSGAASGGACGFRSGAGSLGSHSLYSLGGSKSISISVAAGGSRAGGFSGGRSSCGSGFGSGYGGSLGGSRGMGAGFGGPSGFGGAGGFGRPGSFGPGSCPGGIQEVTINQSLLQPLNVEIDPQIGQVKAQEREQIKTLNNKFASFIDKVRFLEQQNKVLETKWELLQQQTIRSGSGPQNLEPFFESCISCLRKQLDSLLGAKGSLEGELKSMQDLVEDFKKKYEEEINRRTAAENEFVGLKKDVDGAFMNKVELQAKVDSLTDEINFLRTLYDMELSQIQSHVSDTSVVLSMDNNRCLDLDSIIAEVKAQYEDIAQKSKAEAEALYQTKLGELQTTAGRHGDDLRSTKSEIMDLNRMIQRLRAEIENVKKQNTNMQTSIAEAEQRGERALKDADTKFQYLQVALQKAKEDMARLLKEYQELMNVKLALDVEIATYRKLLEGEECRLSGEFQNAVSISVVSNVTSTSSSGSFRGTGGSNYGGDSSGRSGGSSSSSSRGSSSRGSSGSRLGSGGSISVSQQRMGFNSGGSQTSVGSSYKSGRGGSSSVQFSQTTSSSQQRSK | soluble
MSRISVENVKHVAHLARLAITDQEAEKFQKQLDAIVTFAEQLNELDTTDVKPTTHVLTMKNVMREDVPEKGLPVEEVLKNAPDHKDNQIRVPAVLE | not soluble
AIYHLTAKTGSRSGGQSARAKADYIQREGKYARDMDEVLHAESGHMPEFVERPADYWDAADLYERANGRLFKEVEFALPVELTLDQQKALASEFAQHLTGAERLPYTLAIHAGGGENPHCHLMISERINDGIERPAAQWFKRYNGKTPEKGGAQKTEALKPKAWLEQTREAWADHANRALERAGH | soluble
MKYIVLLGDGMSDEAVKDLDGKTPLQAAKTPHMDVMARRGRIGLAHTVPKGLPPGSDVANLSVFGYDPRTCYTGRSPLEAASMGVQLGPDDVAFRVNLVNLLPTKGTLVMNDYSAGHISTEEGRELIEAIQQQIGDDEFQFYPGVGYRHLMVWRNGKSGMSATPPHDISGKSILDYLPKGEGADKLIYLMNSSQMILNNHPQYRRRLEADKIPANSIWLWGHGKAPRMEPFKEKFGLAGAVISAVDLINGIGIGAGLDVIRVEGATGYLDTNYEGKVQAALEALETHDYVYLHVEAPDEASHSGNLSHKLQAIEDFDARVVGPIMEGIRRFGSFRILCTPDHPTPLRLKTHTGAPVPFIIYDGGESEDDSIAGYDEDSARTSGLVLEEGHRLMELLLERLEHHHHHH | soluble
MIRINNIILDIDEDLENLKNKAAKKLKVSKESFESFKILRESIDARKKDVIKFNYSVEVKCKNESKIISKIHGKDAILEKNKEEERFQFGNEKLKHRPIVIGTGPCGMFAALTLAENGYAPLVIERGENVEKRTETVDNFWKTGVLNTESNVQFGEGGAGTFSDGKLTTRIKDPRCTYVLEEFIKSGAPEEIGYVGKPHIGTDILKKVVKNIRERIISLGGEVKFNSKLEDIIIKNDSIEAVVVNGAEIPCECLVLAIGHSSRDTYEMLHKKGIFMDPKPFAIGVRIEHPQDFINESQYGKYKNHPRLKAADYKLTHTTKDKRGVYSFCMCPGGEVVASSSEDERLVCNGMSYYKRDLENANAALVVTVNSEDFKASKELYNKDISDNSPLIGMEFQRYYEHLAYLAGGGNYNAPIQLVGDFMKDTVSSKLGSVKPSYTPGYKFASLSECLPPYVIAALKEGLVNFDKKITGYMLSDAVMTGIETRTSAPLKITRNESLESISLKGLYPSGEGAGFAGGIISAAVDGVKSAESIMRKYKILEHHHHHH | not soluble
MSLFLMDQYIKVDITVEENEQERIMAELLAIGFDSFAEHANMLEAYVEKSAFSEADLKEVLHEVNPAYTYTFAEMPNINWNEEWEKNFDPLVIANQCYVRASFHAERPEFQYEVVINPKMSFGTGHHAEGHHHHHH | soluble
MSESRLLTLRDYIRWAVSRFHAAGLFFGHGTDNAWDEARHLVLGSLHLPWEISDSYLDCRLEDDERAELAEILRRRIEERIPAAYLLGEAWFCGIPFSVDERVLVPRSPIAELIEQRFAPWLPAEPARILDLCTGSGCIGIACAYAFEQAEVVLADLSFDALEVANVNIERHDLGERVYTVQGDGFAGLPGQRFDLIVSNPPYVDAEDFADMPAEFHHEPELGLACGDDGLDLVRRMLAEAADHLSEKGLLIVEVGNSEVHVQALYPEVDFTWLEFEHGGHGVFMLSAAQCREHRELFRSRLEK | not soluble
MNRLMTLTGAGLALAFSVSIAQAQVVVSSKIDTEGGVLGNIILAVLNQNKIETTDRIQLGATPVVRKAITAGEIDIYPEYTGNAAFFFSKADDPLWKDAAKGYEEAKTLDYDANKIVWLAPSPANNTWAIALRKDVADKNNLKTLSDFGKYVAGGGTVVLAASSEFVNSAAALPAFQTTYGFTMKPDQLITLSGGDTAATIAAAANQTNNANAAMVYGTDGGIAPSGLVVLEDDKHVQPVYQPAPIIREEVLKKHPNIEELLKPVFEKLDLATLQDLNARVQVGGEQAKTVAMDFLTKNGFAK | not soluble
MDSYTSSDEDASRKENEGLNMLNASPEPMEEDDPEEQAEQEEETSRMARPIRSMRKRETTSGESMGDEDEDLEDEEDEDEEAEAREHHESGAHDTSFSNPLSNVDNLIHVGTEYQAIIQPTAEQLEKEPCRDQQIWAFPDEMNENRLTEYISEATGRYQLPIDRALFILNKQSNDFDAAMVQAMRRKEIHDDWTAEEISLFSTCFFHFGKRFKKIHAAMPQRSLSSIIQYYYNTKKVQNYKTMINVHLNETDTYDELFKEVNHLERVPSGYCENCNAKSDLLILNRVMSRHECKPCILYFRLMRVPRPASLRALTKRRQRVLCPEYMKIYVYGYLELMEPANGKAIKRLGIGKEKEEDDDIMVVDDCLLRKPSGPYIVEQSIEADPIDENTCRMTRCFDTPAALALIDNIKRKHHMCVPLVWRVKQTKCMEENEILNEEARQQMFRATMTYSRVPKGEIANWKKDMMALKGRFERFTPELDTTATNGNRSGKVRINYGWSPEEKKNAIRCFHWYKDNFELIAELMATKTVEQIKKFYMDNEKLILESIDTYRAELKSKLGK | not soluble
MGSDKIHHHHHHMATVISMINLKGGVGKTTLTVAMAEFMAAEYGLKVLVVDLDPQTNATVALINELEWRKRNIRGQTLLNIFLDHLSKYQVFSLEEAIVHNVSNVNGGIEGLDLLPSSIDLIEVHDEFLQAIPSLPINPLHLLDDVLRAALSAYDIVLIDCPPDLGLICQNGLMISDYYIIPTIPDILSTYGIPQIINRIGRLQRENSISIQPLGLVISKYRQQSEIHKNQANLLKIHAPKAGYRQVFNTFIPEGNLAAMVMDYTLHFNSLREKYNYSKYYQIYKALTEEVLSCVQ | not soluble
MSNSAQRDARNSRDESARASDTDRIQIAQLLAYAAEQGRLQLTDYEDRLARAYAATTYQELDRLRADLPGAAIGPRRGGECNPAPSTLLLALLGGFERRGRWNVPKKLTTFTLWGSGVLDLRYADFTSTEVDIRAYSIMGAQTILLPPEVNVEIHGHRVMGGFDRKVVGEGTRGVPTVRIRGFSLWGDVGIKRKPRKPRK | not soluble
SDFANLSSTNKELSPQYNWVACGILEGGLKAAGVLEEGQYNRELAEAIAAKGEGFWTTQFPQIGDWNEDQAAALADRAQTCGLVKADTYLSELSSNFSS | soluble
LSCLTPDNKPGKCVNIKKCTHLAEIEEDPIGEDETTYLKNSVCAGPEDNSVCCG | soluble
MGSDKIHHHHHHMLDRKLLESLGGWQGYGVERVEWPEDPGRTLSIYLKPTAKVMLCEQCGARCRQVHETTVRRVRDLPLFEYRVVLHVPRRRLWCEQCGGPRLERLAWLGRYQRVTDRLAQACSQLLQSSNVQAVARFFELGWHTVKTLDKARLRASVREPDWSKIEYLAMDEFALHKGHRYATVVVDPIGRQVLWIGPGRSRETARAFFEQLPPGAAQRIKAVAIDMTTAYELEIQAHSPQAEIVYDLFHVVAKYGREVIDRVRVDQANQLRQDRPARRIIKSSRWLLLRNRDNLDRQQAVRLDELLQANQPLLTVYVLRDELKRLWFYQRPAWARQAWNHWYEQAEQSGIAALNTFAQRLKGYLHGILARCRHPLNTSIVEGINNTIKVIKRRAYGYRDQEYFFLKIRAAFPGNAR | not soluble

— the DeepSol protein solubility set
